The text below walks through data of patent publication US20260085097A1 (TEXAS A AND M UNIVERSITY SYSTEM, published 2026).

In assay [1] the target is T1, Shiga toxin 2a (Stx2a) holotoxin (Escherichia coli (Shiga …, UniProt P09385 23-319; P09386 20-89).
T1 sequence (P09385 23-319 limits assumed, one chain of several): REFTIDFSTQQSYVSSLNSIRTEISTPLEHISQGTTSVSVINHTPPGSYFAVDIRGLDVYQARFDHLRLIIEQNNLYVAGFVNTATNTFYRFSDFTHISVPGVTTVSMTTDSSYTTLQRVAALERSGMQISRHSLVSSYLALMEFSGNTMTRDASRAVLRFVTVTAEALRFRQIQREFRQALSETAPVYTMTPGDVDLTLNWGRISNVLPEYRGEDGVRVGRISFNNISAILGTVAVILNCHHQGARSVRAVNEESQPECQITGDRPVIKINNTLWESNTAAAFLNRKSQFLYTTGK
The target in assay [2] is T1, Shiga toxin 2a (Stx2a) holotoxin. Put plainly: cell-based or functional assay.
The target is the same in assay [3]. The assay can be described thus: BLI (BLItz), biotinylated Stx2a holotoxin on streptavidin sensor, apparent KD.
Target sequence in this assay (P09385 23-319 limits assumed, one chain of several): as above
For assay [4] the target is unchanged. The assay can be described thus: BLI (BLItz), biotinylated Stx2a holotoxin on streptavidin sensor.
Target sequence in this assay (P09385 23-319 limits assumed, one chain of several): as above
In assay [5] the target is Shiga toxin 2a (Stx2a) holotoxin (Escherichia coli (Shiga …, UniProt P09385 23-319; P09386 20-89). The assay can be described thus: cell-based or functional assay. The source holds these as a separate data set.
Target sequence in this assay (P09385 23-319, chain 1 of 2): as the sequence (P09385 23-319 limits assumed, one chain of several) above
Target sequence in this assay (P09386 20-89, tags left off, chain 2 of 2): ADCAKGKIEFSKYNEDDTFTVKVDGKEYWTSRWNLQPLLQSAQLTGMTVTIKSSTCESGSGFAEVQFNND
In assay [6] the target is T1, Shiga toxin 2a (Stx2a) holotoxin. This is another data set of the same source.
The target of assay [7] is T2, Stx2a-A1 fragment with a C-terminus 6xHis tag (Escherichia coli (Shiga …, UniProt P09385 23-272)). The assay can be described thus: ELISA at pH 6.0, plate coated with 4 ug/mL Stx2a-A1. On the technique in general: An ELISA detects its analyte on a solid surface through an enzyme-linked reagent.
T2 sequence (P09385 23-272, tags left off): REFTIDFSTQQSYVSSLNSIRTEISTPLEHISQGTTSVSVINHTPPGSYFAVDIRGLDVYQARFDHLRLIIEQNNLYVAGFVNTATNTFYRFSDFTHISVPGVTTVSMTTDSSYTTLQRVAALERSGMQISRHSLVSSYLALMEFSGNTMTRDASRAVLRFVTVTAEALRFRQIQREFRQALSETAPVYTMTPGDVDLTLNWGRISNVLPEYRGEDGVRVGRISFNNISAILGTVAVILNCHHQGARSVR
Assay [8] addresses T2, Stx2a-A1 fragment with a C-terminus …. Put plainly: ELISA at pH 7.4, plate coated with 4 ug/mL Stx2a-A1.
In assay [9] the target is T1, Shiga toxin 2a (Stx2a) holotoxin. This is another data set of the same source.
For assay [10] the target is unchanged. This is another data set of the same source.
Target sequence in this assay (P09385 23-319 limits assumed, one chain of several): as the sequence (P09385 23-319 limits assumed, one chain of several) above
Assay [11] has the same target. The assay can be described thus: screen of E. coli lysates for Stx2a binding after off-rate selection.
Target sequence in this assay (P09385 23-319 limits assumed, one chain of several): as above
Assay [12] has the same target. The assay can be described thus: ELISA, plate coated with full-length Stx2a.
Target sequence in this assay (P09385 23-319 limits assumed, one chain of several): as above

In general, koff refers to the first-order rate constant of dissociation. The EC50 (read off the curve) is the concentration that produces a half-maximal response. A higher EC50 (read off the curve) goes with weaker potency. By EC50 is commonly meant the concentration at which the effect is half-maximal. A lower EC50 goes with higher potency in that assay.

Read-outs that look alike come from different tables or passages of the source.

B1: DARPin #3 (designed binder)
chain: MGSSHHHHHHSSGLVPRGSHMEQKLISEEDLGSDLGKKLLEAARAGQDDEVRILMANGADVNACDSNGRTPLHLAAVRGHLEIVEVLLKNGADVNAWDVIGKTPLHLAADGGHLEIVEVLLKNGADVNAWDLIGRTPLHLAALDGHLEIVEVLLEHGADVNAYDRPGHTPLHLAARRGHLEIVEVLLKYGADVNAQDKFGKTAFDISIDNGNEDLAEILQSSS
As to B1, in [1], the koff was 0.0438 s⁻¹. Besides, the “EC50 of Stx2a neutralization, Vero E6 toxin challenge assay (cell viability)” value (“EC50 of Stx2a neutralization … (cell viability)” below) in [2] was over 1000 nM. Moreover, the Kd in assay [3] is 8.8 nM; in assay [4] it was 8.83 nM.

B2: DARPin #16 (designed binder)
chain: DLGKKLLEAARAGQDDEVRILMANGADVNAADPAGWTPLHLAACYGHLEIVGVLLKNGADVNALDWGGWTPLHLAAVIGHLEIVGVLLKHGADVNATDLSGWTPLHLAAFRGHLEIVEVLLKHGADVNAQDKFGKTAFDISIDNGNEDLAEILQSSS
Regarding B2, the “EC50 of Stx2a neutralization … (cell viability)” value in [5] is over 1000 nM.

B3: DARPin HT (designed binder)
chain: MGSSHHHHHHSSGLVPRGSHMEQKLISEEDLGSDLGKKLLEAARAGQDDEVRILMANGADVNAGDPFGFTPLHLAAMFGHLEIVEVLLKNGADVNAHDEYGFTPLHLAAVVGHLEIVEVLLKNGADVNACDNQGGTPLHLAAHTGHLEIVEVLLKHGADVNAQDKFGKTAFDISIDNGNEDLAEILQSSS
Regarding B3, the half-maximal effective concentration (EC50 (read off the curve)) in assay [6] was about 1 nM. For the same molecule, the “EC50 of Stx2a neutralization, Vero E6 toxin challenge assay” value in [2] is 1900 nM. The EC50 in assay [7] and in [8] was 1.2 nM throughout. In addition, in assay [3], the Kd amounted to 409 nM.

B4: DARPin 10B (designed binder)
chain: MGSSHHHHHHSSGLVPRGSHMEQKLISEEDLGSDLGKKLLEAARAGQDDEVRILMANGADVNAGDPFGFTPLHLAAMFGHLEIVEVLLKNGADVNAHDEYGFTPLHLAAVVGHLEIVEVLLKNGADVNACDNQGGTPLHLAAVDGHLEIVEVLLKHGADVNAQDKFGKTAFDISIDNGNEDLAEILQSSS
Regarding B4, the “EC50 (read off the curve)” value in assay [9] is about 4 nM. Further, the Kd in assay [10] was 3540 nM; in [3], 3450 nM; in [4] it was 3540 nM. Moreover, the “EC50 of Stx2a neutralization, Vero E6 toxin challenge assay” value in [2] came out at 2700 nM. Besides, the “EC50 of Stx2a neutralization … (cell viability)” value in assay [2] is over 1000 nM. In addition, the half-maximal effective concentration (EC50) was determined as 3.8 nM in assay [7] and 3.7 nM in assay [8].

B5: DARPin Off-rate #28 (designed binder)
chain: MGSSHHHHHHSSGLVPRGSHMEQKLISEEDLGSDLGKKLLEAARAGQDDEVRILMANGADVNAGDPFGFTPLHLAAMYGHLEIVEVLLKNGADVNAHEEYGFTPLHLAAVVGHLEIVEVLLKNGADVNACDNQGGTPLHLAARIGHLEIVEVLLKHGADVNAQDKFGKTAFDISIDNGNEDLAEILQSSS
On to B5, for which, in assay [11], the binding result is “binds”.

B6: DARPin RI (designed binder)
chain: MGSSHHHHHHSSGLVPRGSHMEQKLISEEDLGSDLGKKLLEAARAGQDDEVRILMANGADVNAGDPFGFTPLHLAAMFGHLEIVEVLLKNGADVNAHDEYGFTPLHLAAVVGHLEIVEVLLKNGADVNACDNQGGTPLHLAARIGHLEIVEVLLKHGADVNAQDKFGKTAFDISIDNGNEDLAEILQSSS
On to B6, for which the “EC50 (read off the curve)” value in assay [6] is about 1 nM. Further, in assay [2], the “fold improved toxin neutralization activity in the Vero E6 toxin challenge assay” value is about 4 fold. Also, in assay [12], the “fold improved toxin-binding ability in ELISA (against parent 10B)” value is about 8 fold.

B7: DARPin Off-rate #27 (designed binder)
chain: MGSSHHHHHHSSGLVPRGSHMEQKLISEEDLGSDLGKKLLEAARAGQDDEVRFLMANGADVNAGDPFGFTPLHLAAMFGHLEIVEVLLKNGADENAHEEYGFTPLHLAAVVGHLEIVEVLLKNGADVNACDNQGGTPLHLAAHTGHLEIVEVLLKHGADVNAQDKFGKTAFDISIDNGNEDLAEILQSSS
For the molecule B7, the binding result in assay [11] is on record as “binds”.

B8: DARPin Off-rate #26 (designed binder)
chain: MGSSHHHHHHSSGLVPRGSHMEQKLISEEDLGSDLGKKLLEAARAGQDDEVRILMANGADVNAGDPFGFTPLHLAAMFGHLEIVEVLLKNGADVNAHEEYGFTPLHLAAVVGHLEIVEVLLKNGADVNACDNQGGTPLHLASHTGHLEIVEVLLKHGADVNAQDKFGKTAFDISIDTGNEDLAEILQSSS
Turning to B8, the binding result in assay [11] was “binds”.
